Target: Full-length mouse melanocyte-type myosin-5a (Myo5a-FL) (mouse) (UniProt Q99104)
Sequence (Q99104 whole entry): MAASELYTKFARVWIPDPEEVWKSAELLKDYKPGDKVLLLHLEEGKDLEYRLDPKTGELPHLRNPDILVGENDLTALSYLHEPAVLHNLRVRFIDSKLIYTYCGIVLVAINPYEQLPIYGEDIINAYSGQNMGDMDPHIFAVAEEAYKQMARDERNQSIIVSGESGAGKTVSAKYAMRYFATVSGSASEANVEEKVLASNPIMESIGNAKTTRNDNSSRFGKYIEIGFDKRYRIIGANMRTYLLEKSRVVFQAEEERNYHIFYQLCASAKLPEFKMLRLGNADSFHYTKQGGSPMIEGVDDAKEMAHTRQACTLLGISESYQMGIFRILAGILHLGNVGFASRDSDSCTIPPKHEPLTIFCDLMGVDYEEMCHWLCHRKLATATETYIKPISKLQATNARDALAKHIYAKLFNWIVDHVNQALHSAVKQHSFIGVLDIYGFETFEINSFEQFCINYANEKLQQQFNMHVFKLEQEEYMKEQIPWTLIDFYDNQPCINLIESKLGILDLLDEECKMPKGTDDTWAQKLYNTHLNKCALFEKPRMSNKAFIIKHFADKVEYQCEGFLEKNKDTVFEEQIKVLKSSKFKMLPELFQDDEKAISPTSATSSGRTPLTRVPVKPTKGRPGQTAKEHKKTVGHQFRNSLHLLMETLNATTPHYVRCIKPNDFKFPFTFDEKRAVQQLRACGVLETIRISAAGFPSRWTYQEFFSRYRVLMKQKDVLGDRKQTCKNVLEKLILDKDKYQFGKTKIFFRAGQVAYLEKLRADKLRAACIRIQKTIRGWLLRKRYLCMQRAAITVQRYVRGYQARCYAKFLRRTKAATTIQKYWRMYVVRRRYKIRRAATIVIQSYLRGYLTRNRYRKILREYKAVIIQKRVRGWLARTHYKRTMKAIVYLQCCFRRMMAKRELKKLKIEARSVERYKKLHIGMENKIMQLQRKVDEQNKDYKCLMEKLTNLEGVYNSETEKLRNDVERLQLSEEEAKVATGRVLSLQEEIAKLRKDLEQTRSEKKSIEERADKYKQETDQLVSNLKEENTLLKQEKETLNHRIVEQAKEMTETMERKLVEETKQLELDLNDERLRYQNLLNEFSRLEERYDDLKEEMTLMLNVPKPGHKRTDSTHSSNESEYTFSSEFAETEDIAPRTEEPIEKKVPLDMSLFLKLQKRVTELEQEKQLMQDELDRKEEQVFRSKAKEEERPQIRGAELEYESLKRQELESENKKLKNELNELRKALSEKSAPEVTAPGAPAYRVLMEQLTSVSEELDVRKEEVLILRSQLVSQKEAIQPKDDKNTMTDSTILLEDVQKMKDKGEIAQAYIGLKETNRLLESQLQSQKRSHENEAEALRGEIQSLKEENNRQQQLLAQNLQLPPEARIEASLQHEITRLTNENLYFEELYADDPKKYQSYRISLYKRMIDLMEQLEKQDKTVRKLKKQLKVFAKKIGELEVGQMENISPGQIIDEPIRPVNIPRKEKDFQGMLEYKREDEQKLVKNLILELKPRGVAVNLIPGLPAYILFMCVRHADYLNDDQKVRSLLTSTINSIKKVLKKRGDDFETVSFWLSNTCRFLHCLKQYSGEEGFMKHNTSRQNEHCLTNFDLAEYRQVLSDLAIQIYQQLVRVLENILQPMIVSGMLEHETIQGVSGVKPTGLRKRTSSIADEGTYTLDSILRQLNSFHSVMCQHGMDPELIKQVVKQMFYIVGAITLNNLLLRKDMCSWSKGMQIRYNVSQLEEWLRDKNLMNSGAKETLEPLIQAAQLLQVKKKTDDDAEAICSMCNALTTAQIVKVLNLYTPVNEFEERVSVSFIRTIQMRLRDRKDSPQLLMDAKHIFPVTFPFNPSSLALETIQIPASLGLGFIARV

stimulation of the actin-activated ATPase activity of Myo5a-FL by Mlph-GTBDP (EGTA conditions, 40 uM actin), hyperbolic fit: apparent Kd: 19.8 µM
Binder: RDQPLNSKKKKRLLSFRDVDFEEDSDY [Mlph-GTBDP, 26-residue Myo5a-GTD binding peptide of melanophilin with a C-terminal tyrosine]

From PMC4454200
